Measurements taken from patent US20110212105A1.

Molecular target: A2MR receptor on Vero cells (monkey (Vero cell line))
Experiment: cell-based or functional assay

Chain of RAPR13 (recombinant human LRPAP1 / receptor-associated protein with an N-terminal tag of 6 histidines and a thrombin cleavage site) (P30533 other isoform, or with tags, fused parts or gaps limits assumed): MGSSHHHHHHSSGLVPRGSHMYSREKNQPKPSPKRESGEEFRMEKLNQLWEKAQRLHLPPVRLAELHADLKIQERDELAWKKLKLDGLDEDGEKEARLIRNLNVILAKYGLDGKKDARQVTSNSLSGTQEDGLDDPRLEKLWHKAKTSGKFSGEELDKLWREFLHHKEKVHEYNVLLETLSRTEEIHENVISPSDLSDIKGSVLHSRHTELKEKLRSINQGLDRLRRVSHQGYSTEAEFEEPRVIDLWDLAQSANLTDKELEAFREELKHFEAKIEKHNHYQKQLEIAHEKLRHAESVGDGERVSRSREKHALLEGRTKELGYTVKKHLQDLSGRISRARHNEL

How did the inhibition of the infection of Vero cells by DV1 (West Pac 74), lytic plaque assay, RAPR13 at 100 µg/mL turn out when “RAPR13 (recombinant human LRPAP1 / receptor-associated protein with an N-terminal tag of 6 histidines and a thrombin cleavage site) (from UniProt P30533 35-357) (ligand)” was run?
Its inhibition of the infection of Vero cells by DV1 (West Pac 74), lytic plaque assay, RAPR13 at 100 µg/mL is 65%.

What about the inhibition of the infection of Vero cells by DV2 (S16803), lytic plaque assay, RAPR13 at 100 µg/mL of the same substance?
Its inhibition of the infection of Vero cells by DV2 (S16803), lytic plaque assay, RAPR13 at 100 µg/mL is 76%.

And the inhibition of the infection of Vero cells by DV3 (CH53489), lytic plaque assay, RAPR13 at 100 µg/mL?
The inhibition of the infection of Vero cells by DV3 (CH53489), lytic plaque assay, RAPR13 at 100 µg/mL was 60%.

And the inhibition of the infection of Vero cells by DV4 (TVP360), lytic plaque assay, RAPR13 at 100 µg/mL?
Its inhibition of the infection of Vero cells by DV4 (TVP360), lytic plaque assay, RAPR13 at 100 µg/mL is 75%.
